In patent publication US20240301052A1 (LANOVA MEDICINES DEVELOPMENT, published 2024):

Legend:
[1] = biological target: Cynomolgus SLC34A2 (Cynomolgus); assay: FACS, cells expressing Cynomolgus SLC34A2
human SLC34A2 [2] = biological target: T1, human SLC34A2 (human, UniProt O95436 1-690); assay: FACS, HEK293/human SLC34A2 cells
T1 sequence (looked up): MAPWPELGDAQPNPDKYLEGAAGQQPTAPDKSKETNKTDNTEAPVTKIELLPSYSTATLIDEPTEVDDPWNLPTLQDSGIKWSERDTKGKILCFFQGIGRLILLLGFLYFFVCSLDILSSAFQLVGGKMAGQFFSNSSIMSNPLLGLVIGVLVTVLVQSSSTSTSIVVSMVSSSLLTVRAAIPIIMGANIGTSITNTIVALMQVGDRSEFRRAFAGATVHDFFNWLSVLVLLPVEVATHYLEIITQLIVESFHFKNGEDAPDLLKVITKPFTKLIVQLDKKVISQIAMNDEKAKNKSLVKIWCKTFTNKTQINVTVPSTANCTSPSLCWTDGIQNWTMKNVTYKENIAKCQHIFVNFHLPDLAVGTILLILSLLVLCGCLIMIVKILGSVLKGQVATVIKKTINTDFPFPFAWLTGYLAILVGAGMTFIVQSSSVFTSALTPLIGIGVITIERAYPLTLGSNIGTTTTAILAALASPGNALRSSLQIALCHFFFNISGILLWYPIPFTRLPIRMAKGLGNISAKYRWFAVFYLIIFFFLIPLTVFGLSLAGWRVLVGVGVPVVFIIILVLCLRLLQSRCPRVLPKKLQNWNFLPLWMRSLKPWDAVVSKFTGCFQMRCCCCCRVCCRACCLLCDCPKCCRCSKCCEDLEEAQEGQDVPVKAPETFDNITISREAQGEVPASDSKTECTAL

mouse SLC34A2 = biological target: T2, mouse SLC34A2 (mouse, UniProt Q9DBP0 1-697); assay: FACS, HEK293/Mouse SLC34A2 cells
T2 construct: whole, on cells
T2 sequence (looked up): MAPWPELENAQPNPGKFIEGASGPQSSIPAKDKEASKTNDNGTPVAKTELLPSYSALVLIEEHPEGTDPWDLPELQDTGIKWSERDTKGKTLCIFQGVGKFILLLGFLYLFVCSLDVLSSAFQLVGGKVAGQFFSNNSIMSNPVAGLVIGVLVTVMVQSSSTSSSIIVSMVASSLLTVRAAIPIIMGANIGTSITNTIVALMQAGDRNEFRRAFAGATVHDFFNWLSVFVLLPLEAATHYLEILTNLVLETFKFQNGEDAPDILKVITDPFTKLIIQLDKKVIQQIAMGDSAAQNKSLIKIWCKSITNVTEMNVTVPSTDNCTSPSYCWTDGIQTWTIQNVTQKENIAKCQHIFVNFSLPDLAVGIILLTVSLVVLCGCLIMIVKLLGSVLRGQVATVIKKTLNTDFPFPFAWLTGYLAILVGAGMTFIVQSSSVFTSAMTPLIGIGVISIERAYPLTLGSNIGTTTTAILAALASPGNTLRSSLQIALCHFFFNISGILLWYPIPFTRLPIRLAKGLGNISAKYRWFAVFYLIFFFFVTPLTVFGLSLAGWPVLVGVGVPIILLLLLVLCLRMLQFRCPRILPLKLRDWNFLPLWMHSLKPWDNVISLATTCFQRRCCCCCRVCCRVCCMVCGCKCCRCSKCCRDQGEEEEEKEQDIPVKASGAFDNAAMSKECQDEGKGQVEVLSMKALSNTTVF

human SLC34A2 [3] = biological target: T1, human SLC34A2; assay: FACS, OVCAR3 cells
human SLC34A2 [4] = biological target: T1, human SLC34A2; assay: FACS, OVCAR3 cells; remark: listed apart in the source

EC50 [1]: 29.3 nM | Top (MFI) [1]: 2050 MFI | EC50 (human SLC34A2 [2]): 4.27 nM | EC50 (mouse SLC34A2): 6.13 nM | EC50 (human SLC34A2 [3]): 2.68 nM | Top (MFI) (human SLC34A2 [3]): 32400 MFI | EC50 (human SLC34A2 [4]): 6.8 nM
B1: XMT-1536 (antibody, INN chains, looked up, V domains shown)
VH: QVQLVQSGAEVVKPGASVKMSCKASGYTFTGYNIHWVKQAPGQGLEWIGAIYPGNGDTSYKQKFRGRATLTADTSTSTVYMELSSLRSEDSAVYYCARGETARATFAYWGQGTLVTVSS
VL: DIQMTQSPSSLSASVGDRVTITCSASQDIGNFLNWYQQKPGKTVKVLIYYTSSLYSGVPSRFSGSGSGTDYTLTISSLQPEDFATYYCQQYSKLPLTFGQGTKLELK
modifications: rilsodotin auristatin payload
